Usually Km stands for the concentration of substrate that gives half-maximal velocity.

The subject of the data set is OsHPPD. Put plainly: HPPD enzyme activity assay: Km, Kcat and Kcat/Km of OsHPPDs. The format is biochemical, Oryza sativa. The following applies: substrate 4-HPP. The procedure: The rice OsHPPD protein and homogentisate 1,2-dioxygenase (HGD) were obtained by heterologously expressed in E. coli wherein the gene was inserted into the pET 15b expression vector and expressed in the BL21 (DE3) expression strain, and purified by the Ni-NTA resin. • (1) The HPPD open reading frame (ORF) of the positive clone was cloned into the pET-15b vector to form a 6His-HPPD expression vector, and transformed into the BL21 (DE3) cell. The expression strain was inoculated in 10 mL of 2×YT culture medium, and cultivated overnight on a shaker at 37° C. and 200 rpm. The 10 mL of the culture was inoculated in 1 L of 2×YT culture medium and cultivated until the OD600 reached 0.6-0.8, cooled to a temperature of 16° C., and subjected to induced-expression with 0.2 mM IPTG (isopropyl thiogalactoside) overnight. The strains were collected by centrifugation at 2800×g. • (2) The collected strains were re-suspended with the buffer A (50 mM Tris pH 8.0, 500 mM NaCl, 20 mM imidazole), to which PMSF (phenylmethanesulfonyl fluoride) at the final concentration of 1 mM and 250 μL of a protease inhibitor cocktail (i.e., a mixture of multiple protease inhibitors), and mixed. The cells were broken by ultrasound in ice-bath (40% total power, work for 3 seconds/6 seconds interval, 2×30 minutes (Ningbo Scientz Biotechnology Co., Ltd., Ningbo, China)), and centrifuged at 12000 rpm at 4° C. for 30 minutes; and the supernatant was filtered with a 0.22 μm filter membrane. • (3) Purification with the Ni-NTA column: the supernatant was in contact with the Ni-NTA resin, then rinsed with a buffer A containing 50 mM imidazole to remove the impurities, and finally, eluted with an elution buffer containing 400 mM imidazole. • (4) The approximate purity of the protein of interest was analyzed by SDS-PAGE. The eluates containing of the protein of interest were combined and concentrated by an ultrafiltration device (10 kDa molecular weight cut-off, Amicon Ultra). The solution was replaced with a solution containing 20 mM Tris-HCl and having a pH of 7.5 for at least 3 times to desalt. The total protein concentration was determined by the BCA method.
• 1. The activity of a HPPD enzyme was determined by detecting the conversion of 4-hydroxyphenylpyruvate (4-HPP) to homogentisic acid (HGA) catalyzed by the HPPD enzyme and the conversion of HGA to maleylacetoacetate (MAA) catalyzed by homogentisate dioxygenase. […] 6 μl of 4-hydroxyphenylpyruvate (4-HPP) having a concentration that was as 50 times as the final concentration of the substrate were added to an ELSA plate, and then 294 μL of hydroxyethylpiperazine ethanesulfonic acid (HEPES) with a final concentration of 25 mM and pH of 7, 2 mM of Vitamin C, 10 mM FeSO4, 50 nM homogentisate dioxygenase and 5 to 240 nM HPPD enzyme were added thereto at one time. The final concentration of reaction substrate 4-HPP usually ranged from 1 to 100 μM. • 3. The absorbance changes of the reaction wells at 318 nm were continuously monitored by a UV ELISA detector (ReadMax 1900 photoabsorption type full-wavelength microplate reader) (Shanghai). • 4. Determination of Km, Kcat and Kcat/Km of OsHPPDs
Vmax is the maximum catalytic reaction rate achievable by enzymatic catalysis. The Michaelis constant Km is the concentration of a substrate required when the enzyme catalyzed the reaction to achieve half of the maximum rate (Vmax). The Km value is a constant and independent of the enzyme concentration, and altered as substrate type, reaction temperature, pH, and ionic strength changed. […] is a catalytic constant of an enzyme and referred to the number of substrate molecules that could be catalyzed by an enzyme molecule or enzyme active center per second. KCat/Km represents the catalytic efficiency of enzyme. It could be seen from the data in the table that the catalytic efficiency of most HPPD mutants was enhanced.

B1: H141R/G342D/D370N: three-site mutant rice HPPD (OsHPPD3M) (protein, listed as Oryza sativa)
chain: MPPTPTPTATTGAVSAAAAAGENAGFRLVGHRRFVRANPRSDRFQALAFHHVELWCADAASAAGRFAFALGAPLAARSDLSTGNSAHASLLLRSASVAFLFTAPYGGDHGVGADAATTASIPSFSPGAARRFAADHGLAVRAVALRVADAADAFRASVAAGARPAFQPADLGGGFGLAEVELYGDVVLRFVSHPDGADAPFLPGFEGVSNPGAVDYGLRRFDHVVGNVPELAPVAAYISGFTGFHEFAEFTAEDVGTAESGLNSVVLANNAETVLLPLNEPVHGTKRRSQIQTYLDHHGGPGVQHIALASDDVLGTLREMRARSAMGGFEFLAPPPPNYYDDVRRRAGDVLSEEQINECQELGVLVDRDNQGVLLQIFTKPVGDRPTFFLEMIQRIGCMEKDESGQEYQKGGCGGFGKGNFSELFKSIEEYEKSLEAKQAPTVQGS
modifications: The amino acid sequence of Wild-Type rice HPPD protein (OsHPPD _WT)
Consider B1, for which the Km worked out at 10.9 µM.

The values above are taken from patent US12428627B2, “Mutant p-hydroxyphenylpyruvate dioxygenase, and coding nucleic acid and use thereof” (Qingdao Kingagroot Chemical Compound Co., Ltd., priority 2018, dated 2025).
